Source: patent US20180318419A1 (YALE UNIVERSITY, published 2018)

T1: human leucine rich repeat containing 4C (LRRC4C) (human, UniProt Q9HCJ2 45-640)
T1 construct: also called human LRRC4; NGL1
T1 sequence: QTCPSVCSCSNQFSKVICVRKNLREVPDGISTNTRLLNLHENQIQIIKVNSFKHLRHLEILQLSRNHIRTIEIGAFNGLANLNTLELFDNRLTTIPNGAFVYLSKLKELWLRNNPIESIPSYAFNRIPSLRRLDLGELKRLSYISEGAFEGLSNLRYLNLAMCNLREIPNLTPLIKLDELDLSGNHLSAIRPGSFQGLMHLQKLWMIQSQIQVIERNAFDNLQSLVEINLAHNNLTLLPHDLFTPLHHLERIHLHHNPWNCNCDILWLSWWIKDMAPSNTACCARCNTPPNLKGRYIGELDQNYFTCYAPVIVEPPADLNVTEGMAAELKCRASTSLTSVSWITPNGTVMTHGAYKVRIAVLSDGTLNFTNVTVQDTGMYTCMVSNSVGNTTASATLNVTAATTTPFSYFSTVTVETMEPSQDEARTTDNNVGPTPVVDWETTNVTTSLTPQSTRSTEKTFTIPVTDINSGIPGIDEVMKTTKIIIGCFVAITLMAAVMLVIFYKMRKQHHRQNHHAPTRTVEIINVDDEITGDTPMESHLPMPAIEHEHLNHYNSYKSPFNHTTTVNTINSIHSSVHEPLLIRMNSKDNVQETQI

T2: human myelin-associated glycoprotein (MAG) (human, UniProt P20916 20-626)
T2 construct: Expressed on transfected HEK293T cells from the human membrane gene library; also called Siglec 4; human MAG
T2 sequence: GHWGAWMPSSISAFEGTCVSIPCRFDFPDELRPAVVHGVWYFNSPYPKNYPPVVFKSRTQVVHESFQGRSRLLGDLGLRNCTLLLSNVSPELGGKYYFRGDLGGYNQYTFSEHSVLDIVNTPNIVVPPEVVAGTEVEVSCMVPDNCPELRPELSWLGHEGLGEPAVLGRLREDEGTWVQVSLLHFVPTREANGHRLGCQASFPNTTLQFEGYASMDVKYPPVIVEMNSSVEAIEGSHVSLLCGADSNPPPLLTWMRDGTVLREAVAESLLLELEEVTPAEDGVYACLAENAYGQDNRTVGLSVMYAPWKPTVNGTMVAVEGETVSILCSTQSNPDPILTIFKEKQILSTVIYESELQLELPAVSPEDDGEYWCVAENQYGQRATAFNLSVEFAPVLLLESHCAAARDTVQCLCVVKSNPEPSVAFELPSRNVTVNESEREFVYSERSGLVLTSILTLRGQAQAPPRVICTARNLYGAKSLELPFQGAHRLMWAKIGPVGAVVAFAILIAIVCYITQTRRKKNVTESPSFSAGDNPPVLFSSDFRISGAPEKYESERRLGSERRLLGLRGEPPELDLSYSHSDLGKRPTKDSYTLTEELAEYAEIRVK

T3: LRRC4C (species not stated) (Homo sapiens (Human), UniProt Q9HCJ2 45-640, limits assumed)
T3 construct: also called leucine rich repeat containing 4C
T3 sequence: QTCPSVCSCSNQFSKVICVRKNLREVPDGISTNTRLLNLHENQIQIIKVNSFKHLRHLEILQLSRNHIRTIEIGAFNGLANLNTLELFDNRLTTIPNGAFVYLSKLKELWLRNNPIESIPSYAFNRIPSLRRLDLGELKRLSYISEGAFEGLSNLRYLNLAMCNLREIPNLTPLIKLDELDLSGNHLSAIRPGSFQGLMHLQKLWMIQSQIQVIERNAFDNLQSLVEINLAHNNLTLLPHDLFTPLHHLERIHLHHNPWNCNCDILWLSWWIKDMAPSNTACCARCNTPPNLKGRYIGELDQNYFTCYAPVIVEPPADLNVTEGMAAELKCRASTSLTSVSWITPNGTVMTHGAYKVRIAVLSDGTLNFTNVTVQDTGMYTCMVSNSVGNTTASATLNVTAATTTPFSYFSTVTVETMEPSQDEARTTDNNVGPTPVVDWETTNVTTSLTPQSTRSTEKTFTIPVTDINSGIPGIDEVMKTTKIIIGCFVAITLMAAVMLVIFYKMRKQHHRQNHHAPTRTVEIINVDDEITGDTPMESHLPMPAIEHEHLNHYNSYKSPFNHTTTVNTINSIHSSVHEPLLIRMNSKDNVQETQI

T4: MAG (species not stated) (Homo sapiens (Human), UniProt P20916 20-626, limits assumed)
T4 construct: also called myelin-associated glycoprotein
T4 sequence: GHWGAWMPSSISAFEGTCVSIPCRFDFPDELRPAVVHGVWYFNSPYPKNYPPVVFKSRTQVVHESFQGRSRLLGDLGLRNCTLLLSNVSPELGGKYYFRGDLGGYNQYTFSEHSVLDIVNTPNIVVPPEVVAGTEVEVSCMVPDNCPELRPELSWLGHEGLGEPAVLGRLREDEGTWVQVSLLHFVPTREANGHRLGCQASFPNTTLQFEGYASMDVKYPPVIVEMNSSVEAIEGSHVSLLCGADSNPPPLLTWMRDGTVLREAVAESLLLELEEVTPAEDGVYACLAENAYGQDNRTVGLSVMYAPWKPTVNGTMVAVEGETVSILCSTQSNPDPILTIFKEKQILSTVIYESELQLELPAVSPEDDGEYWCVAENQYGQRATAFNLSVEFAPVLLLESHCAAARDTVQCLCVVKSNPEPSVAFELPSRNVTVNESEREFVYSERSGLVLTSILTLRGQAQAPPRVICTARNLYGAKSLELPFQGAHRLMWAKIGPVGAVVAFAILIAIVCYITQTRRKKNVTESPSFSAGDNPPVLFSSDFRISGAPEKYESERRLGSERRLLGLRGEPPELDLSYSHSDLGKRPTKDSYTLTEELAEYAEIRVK


What was measured:
[1] = molecular target: T1, human leucine rich repeat containing 4C …; assay: genome-scale human receptor array; transfected HEK293T cells, anti-Fc FMAT blue secondary antibody
Excerpt: (§1) To identify the ligand for Siglec 15, a Siglec 15-Fc fusion protein was generated by fusing the extracellular domain of each molecule with a mouse or human Fc tag (Dong H, et al., Nat Med. 1999; 5(12): 1365-9) and screened in the newly established genome scale human receptor array (Yao, S et al., Immunity 2011, 34(5):729-40). Briefly, the complete human membrane gene library containing over 6,200 genes was collected, maintained, and diluted by OPTI-MEM media and placed individually into four 1,536-well plates at 40 ng/well, through a robotic system. Lipofectamine 2000 was added to each well and mixed with plasmids for 30 minutes. Two thousand HEK293T cells were added subsequently to each well to perform transient transfection. Eight hours after transfection, 10 ng of human Siglec 15-Fc and anti-Fc FMAT blue secondary antibody were added to each well. The plates were read 24 hours after transfection using the Applied Biosystems 8200 cellular detection system and analyzed using the CDS 8200 software. Human Fc Receptor genes served as internal positive controls for the assay.

[2] = molecular target: T2, human myelin-associated glycoprotein …; assay: as above
Excerpt: as §1

[3] = molecular target: T3, LRRC4C (species not stated); assay: binding of Siglec 15 point mutant, FIG. 7
MAG (species not stated) = molecular target: T4, MAG (species not stated); assay: binding of Siglec 15 point mutant, FIG. 7

| binding result [1] | binding result [2] | binding result [3] | binding result (MAG (species not stated)) | Binder |
| --- | --- | --- | --- | --- |
| binds | binds |  |  | human Siglec 15-Fc fusion protein (Fc fusion, not shown: mouse or human Fc tag) FVRTKIDTTENLLNTEVHSSPAQRWSMQVPPEVSAEAGDAAVLPCTFTHPHRHYDGPLTAIWRAGEPYAGPQVFRCAAARGSELCQTALSLHGRFRLLGNPRRNDLSLRVERLALADDRRYFCRVEFAGDVHDRYESRHGVRLHVTAAPRIVNISVLPSPAHAFRALCTAEGEPPPALAWSGPALGNSLAAVRSPREGHGHLVTAELPALTHDGRYTCTAANSLGRSEASVYLFRFHGASGAST |
|  |  | no binding | no binding | Siglec 15 R143A mutant (other, also called R143A mutation) FVRTKIDTTENLLNTEVHSSPAQRWSMQVPPEVSAEAGDAAVLPCTFTHPHRHYDGPLTAIWRAGEPYAGPQVFRCAAARGSELCQTALSLHGRFRLLGNPRRNDLSLRVERLALADDRRYFCAVEFAGDVHDRYESRHGVRLHVTAAPRIVNISVLPSPAHAFRALCTAEGEPPPALAWSGPALGNSLAAVRSPREGHGHLVTAELPALTHDGRYTCTAANSLGRSEASVYLFRFHGASGAST |
